Tested on: K4 kissing-loop RNA reporter
Assay: apparent KD of K4 kissing-loop reporter; higher = weaker reporter binding
Details: Eterna round: R107; input ligand: theophylline 20 uM
Method: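 RNA-MaP round R107: designed RNA switches with theophylline, tryptophan, arginine or FMN aptamers are transcribed on-chip within common flanks. They are titrated with a labelled K4 kissing-loop RNA reporter in RNA-MaP buffer (100 mM Tris pH 7.5, 80 mM KCl, 4 mM MgCl2), without ligand or with the indicated ligand. Median apparent KD per design.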
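Also: bound reporter read as fluorescence of individual clusters on recovered sequencing chips by microscopy, with normalized cluster intensities fitted with a binding model.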

Sequence | apparent KD of K4 kissing-loop reporter [µM]
AGUGCACUGUCAGGAUAUAUACAGUGAUGUUGUGUAUGUCAGCAAGUCAAAGACUUGCUAUUUUGUAUAGAAGGGACUGUGUACA [whbob_Ex_FMNB__2th222] | 0.276
CCAUCGCUAUUCGAUACCAGCCAAGAGGUCUUUGGCCUCUUAUUGGAGUGAUGUUCCAUUGGCCCUUGGCAGCGAAUAGUGAUGG [Theophylline B K4 17] | 0.541
UAUAGGGAUAGUGAUGUUAUCCCAUGUGAUACCAGUGCCAUCCAACACCCUUGGCAGCAUACGGGCAGUGAUGUUGUUCUUGGUA [Exclusion Theophylline A GF 14] | 0.0895
UGUCAUUGGUCGGCCGCCACUUGAAGGUCAAAGACCAUAGAGUGAUGUUCUAAGACGAAAGUCACGAGGACCGGGACCGAUGACU [TrypBS 4 #SwitchBubble #K4Middle] | 0.351
UAGGAGUGAUGUUCCUUUAGCAGGUAGGAAGGAGCGCCCAUUUGGGCAGGUAGGUCGCCUACUGGCCCUAAGUUAAACCUUAGGC [KL-SSArg-A12] | 0.161
AAACAUCACUGGGAGUGAUGUUCUCAGUGACGAGGACCGGUACGGCCGCCACUCGCGAGAGAUAUAGUCUAGUAUUGACUGCAUU [Excl Tryptophan A V11] | 0.339
UUUAUUAAGACGGCCGCCACUGAUUCAGAGUGAUGUUCUGAUAAAAUUUUAGAUAAUAAUAACAGCAGGACCGGGUCAAUUAUUA [JR_SSTryptoB_Sub014] | 0.219
UGGAGUUGACGAAAAGUCAACUCCUGAGAAGGAGCGGACGAAAGUCCAGGUAGGUCGCUCACUGCCAGUGAUGUUGGUAAAUAAA [#OpenEnded 1 - Direct theophylline transfer] | 0.144
AAAGCUCUAUAGAGCAAGAGGUCAACUGAUACCAGAGGCUAUAGCCUCCCUUGGCAGCGGAACGAGUGAUGUUCGAGACCUCAAA [AK6.1 SS Theophylline A] | 0.939
AAGCAGUCACUCGUAGCCAUCGAAGAUGGUCGAGGACCGGUACGGCCGCCACUCGGAGUGAUGUUCCGAAGACUGCAAAAUAAAA | 0.378
UGUGUUGUUUUGAUGUUUGGUGUUGCAUGGCAGGAUAUCGUAGAGGCGAGAAGGGCUUUUGAGCGGUAUGAGUGAUGUUUGUAGG [p,,mmullin] | 0.354

Same assay, conditions: Eterna round: R107; input ligand: tryptophan 2.4 mM

Sequence | apparent KD of K4 kissing-loop reporter [µM]
UUUUUAAUCGCAGAUACCAGUCCAGAAUAAAUACUAUAGUGAUGUUAUAAAUAAGGAAAGGACCCUUGGCAGCUGUACUAUAUUU [AstrosSsTheB#7] | 0.524
AACACUCAACGGAGUGAUGUUCUGGAAAACCGAGGACCGGUACGGCCGCCACUCGGAAAUGAGUGAGUCCUACGAAAAGUAGGAC [Omei inspired 2] | 0.125
AAUUUUAAUAAUAAAUAAUAAAUAAAUGAUACCAGUAUUUUUUUUUACCCUUGGCAGCGUAUAUAAGGGCAGUGAUGUUGUCAGA [whbob_SS_Theo_A_w59] | 0.164
AGAUGUUCCUGGGAUACCAGUCGGAGUCUCAGAGCUCGGAGUGAUGUUCUGGGAUGUUUCGGCCCUUGGCAGCUCUGGGACUCCC [#2 Exclusion - Theophylline B Attempt #24 (HarryS)] | 0.726
GGGCGUGGCGCGGCCGCCACUGCGCCUGGGUGCUCGCUGAGUGAUGUUCGUCGGCGGUUGGGUGGUAGGACCGGGUGCUGGUCGG [BDazzled - #11 SS Tryptophan B] | 0.563
CGUGAAGCCCAGAGGUGAUGUAUAGUAUCGCGAGGACCGGUACGGCCGCCACUCGUGAAGAGAAAGGAGUGAUGUUCCGUAAUGG | 0.165
AAUAAAAUCACGGCCGCCACUAAUGCUAGUAUUAGCAGUGAUGUUGCUAUGUAUAUUUUAUUUAAUAGGACCGGGUGAAUAUUUA [#23 K4 Tryptophan B Exclusion] | 0.224
AUUAAUUUCAGAGGAUAUCGUAUUAAUAUUUUAUCUAUCUAUAUAUGCAGUGAUGUUGCAAUAAUUCGAGAAGGCUGAUUUAUAA [JR_ExcFMNB_Sub009] | 0.0477
AAAUUUAUAUUAGAUACCAGUAUUUUGAAUGUUUAUUAUGACAAGAGUGAUGUUCUUGUAUGCCCUUGGCAGCUGGUAUGGGUUU [KL-XTheo-B23] | 0.115
AAGGUUGUGCAUGGGAGUGAUGUUCCCAGGCAGGAUAUCGCUCACGCGAGAAGGGCUAGCACAACCGCUCAAGAAACUUGAGCAA [Omei KL FMN A SS C v4] | 0.0945
UCCAUGCGCGCACGGUACUUGCCCGCAUAUCGAGGACCGGUACGGCCGCCACUCGUGCCAGUGAUGUUGGCCGGAGAGCCUUAUG [theeternabot_sameState_KL_Trp_A_22] | 0.524
UGACAUUGCUCAGAUACCAGACUUGAGGAUCACCCAGGUGCCAAAUAAACGUACAUAAAAGUCCCUUGGCAGCUGAGCAAUGUCU [TheoBX 11] | 0.0765
CAUGUGUCUGGAAGGAGCGCGGGUUGGUUAAACACUGUCGCGGGCCAGUGAUGUUGGAAUCCGCAGGUAGGUCGCCAGCCACUUG [Araton] | 0.46
AAGAGGACCAACAUCACUAGUCCUCGAAUACGAGGACCGGUACGGCCGCCACUCGAUAACUUGCAGUGAUGUUGCAAGUAAGAAU [(T)''-(K)'-(T)'-(T1)-(T2)-(K1)-(K2)_Design3] | 0.439
CCUAUCUCAUACGAUACCAGUCUAUUAAAACGAGUGAUGUUCGAAAAUUUGCCAUAUAAUGACCCUUGGCAGCGUAUGGGAUAGG [Ex Theophylline B K4 8] | 0.176
AGUGGACGUGUCCGGAGUGAUGUUCCGGAUACCAGACACGAAAGUGUCCCUUGGCAGCAGGAGUGAUGUUCCGGCGUUCACUAAA [Omei KL Theo A Exc B v3] | 0.274
UAAUGCAUGACGGCCGCCACUAGUACUGGAGUGAUGUUGUGGUACGGCGGCAAUAUAGGGUGGACUAGGACCGGGUCAUGCAUAU [KL-XTryp-B12 #analogue] | 0.432
UGUCAUUGGUCGGCCGCCACUGGACCGGGUAUAAUCCCAGUGAUGUUGGUAAAAUACGGCCGCCACAGGACCGGGACCGAUGACU [TrypBS 15 #DoubleAptamer #SwitchBubble #K4Middle] | 0.134
AAUAAAAUCACGGCCGCCACUGAUAUCCAUAUUAGGAGUGAUGUUCCUUUGACUAUAUAAUUUUACAGGACCGGGUGAAUAUUUA [JR_Nu_SSTryptoB_Sub027] | 0.0908
CCCAAGGGCGAACCGGUAUGAUCACCGGAUACCAGAGGCGAAAGCCUCCCUUGGCAGCCGGUUGUAGUGAUGUUACACUGGUUCU | 0.0877
GUGAAGGAGCUGCAGUGAUGUUGCAGAGACUAGGAUAUCAGGAAACUGAGAAGGAGUCAACUCCUUCACCUAGACUGCAACAUAA [[F]''-[K1]-[K2]-[F1]-[F2]-[F2]'-[F1]'-[K]'_Design3] | 0.134

Sequence | apparent KD of K4 kissing-loop reporter [µM]
AAACAUUGGUCUGAUACCAGCUUGAUCGGAAACGAUCUGCUGGAGUGAUGUUCCAAGUAAAGCCCUUGGCAGCAGACCGAUGAAA [MAT - Same State Theophlline B - Mod of Eli - D16] | 0.115
AGAUUCGGCACGGCCGCCACUUCCGGUGGCUGGUGUCAUGGUGCGCGUGAGUGAUGUUUAUGUGGGAGGACCGGGUGUUGAGUCU [whbob_Ex_Tryp_B_w43] | 0.603
CCAUUCAUUUACGAUACCAGUCUAAUAUAUUUGAUCAAAACCCUCGCCGAGUGAUGUUCGGACCCUUGGCAGCGUCUGGGACAGG [eesetmullin] | 0.414
UACUAUAGUGAUGUUAUAGAUAAACCAGAUACCAGUGUAACAUAACACCCUUGGCAGCUGAUGAGGGAACAUAUGAAAACAUAUG [AstroSTH-A#6newdesignED4.78] | 0.222
UUGAGGGAGAAUUAUAGUGAUGUUAUAAAGAAGGAUAUCCAAAGAAGGAGAAGGUCUAAGAGGGAAGGGAGGGAGGGAGGGAGGG [ExFMNA.C] | 0.202
GGUAGUGCUAGCGAUACCAGUCAUAUCGCUCUGGAGUGAUGUUCCGGAACGUGCGGAGAAGACCCUUGGCAGCGCUUGACUGGAA [Exclusion Theophylline B GF6] | 0.736
ACGCGCGCGAGUGAUGUUCGGAGCGGCUGGCAGGAUAUGGAGCAAUCCAGAAGGGUCGUGGCUGCUGGUAGGAAACUACUGGCAG [#2 Exclusion - FMN A Attempt #3 (HarryS)] | 0.299
UGAUAGGACAGAAGGAGCGGGAGUGAUGUUCCCAAAAGGGUAAGGUGUCAAAAGACACCCUCCCAGGUAGGUCGCUGUCCUAUCU | 0.148
GUAGCACUCGAUAGUGAUGUUAUCGAGGGCAAGGAUAUCACCUCAGUGAGAAGGUGUCCUUGAUAACUGCUACGGGAAUAUCCCA [Omei KL FMN A Exc D v8] | 0.0996
CUUCGAUUAACAGAUACCAGUCAUACUGGAGCCUCACUCGAGUGAGUGAUGUUCACUUGAGACCCUUGGCAGCUGUUAGUCGAAG [Theo B Ex t1a] | 0.0934
AGUGCACUGUCAGGAUAUAUACAGUGAUGUUGUGUAUGUCAGCAAGUCAAAGACUUGCUAUUUUGUAUAGAAGGGACUGUGUACA [whbob_Ex_FMNB__2th222] | 0.286
CCAUCGCUAUUCGAUACCAGCCAAGAGGUCUUUGGCCUCUUAUUGGAGUGAUGUUCCAUUGGCCCUUGGCAGCGAAUAGUGAUGG [Theophylline B K4 17] | 0.275
UAUAGGGAUAGUGAUGUUAUCCCAUGUGAUACCAGUGCCAUCCAACACCCUUGGCAGCAUACGGGCAGUGAUGUUGUUCUUGGUA [Exclusion Theophylline A GF 14] | 0.0972
UGUCAUUGGUCGGCCGCCACUUGAAGGUCAAAGACCAUAGAGUGAUGUUCUAAGACGAAAGUCACGAGGACCGGGACCGAUGACU [TrypBS 4 #SwitchBubble #K4Middle] | 1.13
UAGGAGUGAUGUUCCUUUAGCAGGUAGGAAGGAGCGCCCAUUUGGGCAGGUAGGUCGCCUACUGGCCCUAAGUUAAACCUUAGGC [KL-SSArg-A12] | 0.118
AAACAUCACUGGGAGUGAUGUUCUCAGUGACGAGGACCGGUACGGCCGCCACUCGCGAGAGAUAUAGUCUAGUAUUGACUGCAUU [Excl Tryptophan A V11] | 0.348
UUUAUUAAGACGGCCGCCACUGAUUCAGAGUGAUGUUCUGAUAAAAUUUUAGAUAAUAAUAACAGCAGGACCGGGUCAAUUAUUA [JR_SSTryptoB_Sub014] | 0.208
UGGAGUUGACGAAAAGUCAACUCCUGAGAAGGAGCGGACGAAAGUCCAGGUAGGUCGCUCACUGCCAGUGAUGUUGGUAAAUAAA [#OpenEnded 1 - Direct theophylline transfer] | 0.0828
AAAGCUCUAUAGAGCAAGAGGUCAACUGAUACCAGAGGCUAUAGCCUCCCUUGGCAGCGGAACGAGUGAUGUUCGAGACCUCAAA [AK6.1 SS Theophylline A] | 1.13
AAGCAGUCACUCGUAGCCAUCGAAGAUGGUCGAGGACCGGUACGGCCGCCACUCGGAGUGAUGUUCCGAAGACUGCAAAAUAAAA | 0.364
UGUGUUGUUUUGAUGUUUGGUGUUGCAUGGCAGGAUAUCGUAGAGGCGAGAAGGGCUUUUGAGCGGUAUGAGUGAUGUUUGUAGG [p,,mmullin] | 0.379

From the supplement of paper PMC9170038
